In patent US20220363757A1:

Columns and labels:
Test in all cases: SPR, Fab over captured mutant LAG-3-Fc
[1] = target: human LAG-3 domain 1-2 Fc fusion, chimeric construct #11 (mutated region AA 74-82) (human) (UniProt P18627)
[2] = target: human LAG-3 domain 1-2 Fc fusion, chimeric construct #17 (mutated region AA 114-117) (human) (UniProt P18627)
[3] = target: human LAG-3 domain 1-2 Fc fusion, chimeric construct #2 (mutated region AA 29-30) (human) (UniProt P18627)
[4] = target: human LAG-3 domain 1-2 Fc fusion, chimeric construct #22 (mutated region AA 140-142) (human) (UniProt P18627)
Sequence of human LAG-3 domain 1-2 Fc fusion, chimeric construct #22 (mutated region AA 140-142) (human) (P18627 other isoform, or with tags, fused parts or gaps mutant): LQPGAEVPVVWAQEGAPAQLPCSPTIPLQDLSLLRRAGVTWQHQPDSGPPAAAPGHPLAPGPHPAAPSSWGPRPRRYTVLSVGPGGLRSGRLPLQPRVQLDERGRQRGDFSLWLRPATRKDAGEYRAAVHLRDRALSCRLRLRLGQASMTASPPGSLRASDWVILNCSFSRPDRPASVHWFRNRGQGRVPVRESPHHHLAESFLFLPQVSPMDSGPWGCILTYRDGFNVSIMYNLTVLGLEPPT

[5] = target: human LAG-3 domain 1-2 Fc fusion, chimeric construct #26 (mutated region AA 157-161) (human) (UniProt P18627)
[6] = target: human LAG-3 domain 1-2 Fc fusion, chimeric construct #27 (mutated region AA 161-166) (human) (UniProt P18627)
Sequence of human LAG-3 domain 1-2 Fc fusion, chimeric construct #27 (mutated region AA 161-166) (human) (P18627 other isoform, or with tags, fused parts or gaps mutant): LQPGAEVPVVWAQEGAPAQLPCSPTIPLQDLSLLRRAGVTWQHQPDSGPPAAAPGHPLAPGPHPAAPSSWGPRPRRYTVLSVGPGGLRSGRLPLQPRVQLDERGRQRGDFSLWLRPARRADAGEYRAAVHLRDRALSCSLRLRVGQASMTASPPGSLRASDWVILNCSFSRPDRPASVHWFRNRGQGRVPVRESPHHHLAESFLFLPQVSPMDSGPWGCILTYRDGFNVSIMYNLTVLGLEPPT

[7] = target: human LAG-3 domain 1-2 Fc fusion, chimeric construct #4 (mutated region AA 40-47) (human) (UniProt P18627)
Sequence of human LAG-3 domain 1-2 Fc fusion, chimeric construct #4 (mutated region AA 40-47) (human) (P18627 other isoform, or with tags, fused parts or gaps mutant): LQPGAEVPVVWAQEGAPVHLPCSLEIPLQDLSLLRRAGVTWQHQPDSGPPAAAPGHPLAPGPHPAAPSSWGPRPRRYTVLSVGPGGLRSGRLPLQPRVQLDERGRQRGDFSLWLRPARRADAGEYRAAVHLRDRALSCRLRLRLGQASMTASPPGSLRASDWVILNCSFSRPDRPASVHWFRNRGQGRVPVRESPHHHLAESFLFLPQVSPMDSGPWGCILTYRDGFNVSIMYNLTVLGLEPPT

[8] = target: human LAG-3 domain 1-2 Fc fusion, chimeric construct #7 (mutated region AA 53-60) (human) (UniProt P18627)
[9] = target: human LAG-3 domain 1-2 Fc fusion, point mutation #1 A40S (human) (UniProt P18627)
[10] = target: human LAG-3 domain 1-2 Fc fusion, point mutation #11 L56A (human) (UniProt P18627)
Sequence of human LAG-3 domain 1-2 Fc fusion, point mutation #11 L56A (human) (P18627 23-266 L56A): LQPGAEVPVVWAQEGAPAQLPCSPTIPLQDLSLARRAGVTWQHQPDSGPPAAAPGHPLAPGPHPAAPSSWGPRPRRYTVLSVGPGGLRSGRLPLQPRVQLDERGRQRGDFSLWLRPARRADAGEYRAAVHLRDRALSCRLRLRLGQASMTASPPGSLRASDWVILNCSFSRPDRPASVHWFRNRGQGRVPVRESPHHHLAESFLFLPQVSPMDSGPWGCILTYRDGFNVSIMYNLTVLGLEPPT

[11] = target: human LAG-3 domain 1-2 Fc fusion, point mutation #12 R57A (human) (UniProt P18627)
Sequence of human LAG-3 domain 1-2 Fc fusion, point mutation #12 R57A (human) (P18627 23-266 R57A): as the sequence (P18627 23-266 L56A) above, with A34L, R35A counted along it

[12] = target: human LAG-3 domain 1-2 Fc fusion, point mutation #21 A74S (human) (UniProt P18627)
Sequence of human LAG-3 domain 1-2 Fc fusion, point mutation #21 A74S (human) (P18627 23-266 A74S): as the sequence (P18627 23-266 L56A) above, with A34L, A52S counted along it

[13] = target: human LAG-3 domain 1-2 Fc fusion, point mutation #24 G77A (human) (UniProt P18627)
[14] = target: human LAG-3 domain 1-2 Fc fusion, point mutation #25 H78A (human) (UniProt P18627)
Sequence of human LAG-3 domain 1-2 Fc fusion, point mutation #25 H78A (human) (P18627 23-266 H78A): as the sequence (P18627 23-266 L56A) above, with A34L, H56A counted along it

[15] = target: human LAG-3 domain 1-2 Fc fusion, point mutation #28 A81S (human) (UniProt P18627)
[16] = target: human LAG-3 domain 1-2 Fc fusion, point mutation #32 H85A (human) (UniProt P18627)
Sequence of human LAG-3 domain 1-2 Fc fusion, point mutation #32 H85A (human) (P18627 23-266 H85A): as the sequence (P18627 23-266 L56A) above, with A34L, H63A counted along it

[17] = target: human LAG-3 domain 1-2 Fc fusion, point mutation #38 S91A (human) (UniProt P18627)
[18] = target: human LAG-3 domain 1-2 Fc fusion, point mutation #47 T100A (human) (UniProt P18627)
Sequence of human LAG-3 domain 1-2 Fc fusion, point mutation #47 T100A (human) (P18627 23-266 T100A): as the sequence (P18627 23-266 L56A) above, with A34L, T78A counted along it

[19] = target: human LAG-3 domain 1-2 Fc fusion, point mutation #48 V101A (human) (UniProt P18627)
Sequence of human LAG-3 domain 1-2 Fc fusion, point mutation #48 V101A (human) (P18627 23-266 V101A): as the sequence (P18627 23-266 L56A) above, with A34L, V79A counted along it

[20] = target: human LAG-3 domain 1-2 Fc fusion, point mutation #49 G105A (human) (UniProt P18627)
Sequence of human LAG-3 domain 1-2 Fc fusion, point mutation #49 G105A (human) (P18627 23-266 G105A): as the sequence (P18627 23-266 L56A) above, with A34L, G83A counted along it

[21] = target: human LAG-3 domain 1-2 Fc fusion, point mutation #5 P46A (human) (UniProt P18627)
[22] = target: human LAG-3 domain 1-2 Fc fusion, point mutation #54 R110A (human) (UniProt P18627)
[23] = target: human LAG-3 domain 1-2 Fc fusion, point mutation #59 Q117A (human) (UniProt P18627)
[24] = target: human LAG-3 domain 1-2 Fc fusion, point mutation #61 R119A (human) (UniProt P18627)
Sequence of human LAG-3 domain 1-2 Fc fusion, point mutation #61 R119A (human) (P18627 23-266 R119A): as the sequence (P18627 23-266 L56A) above, with A34L, R97A counted along it

[25] = target: human LAG-3 domain 1-2 Fc fusion, point mutation #63 D123A (human) (UniProt P18627)
Sequence of human LAG-3 domain 1-2 Fc fusion, point mutation #63 D123A (human) (P18627 23-266 D123A): as the sequence (P18627 23-266 L56A) above, with A34L, D101A counted along it

[26] = target: human LAG-3 domain 1-2 Fc fusion, point mutation #64 E124A (human) (UniProt P18627)
Sequence of human LAG-3 domain 1-2 Fc fusion, point mutation #64 E124A (human) (P18627 23-266 E124A): as the sequence (P18627 23-266 L56A) above, with A34L, E102A counted along it

[27] = target: human LAG-3 domain 1-2 Fc fusion, point mutation #68 Q128A (human) (UniProt P18627)
[28] = target: human LAG-3 domain 1-2 Fc fusion, point mutation #70 G130A (human) (UniProt P18627)
[29] = target: human LAG-3 domain 1-2 Fc fusion, point mutation #71 D131A (human) (UniProt P18627)
Sequence of human LAG-3 domain 1-2 Fc fusion, point mutation #71 D131A (human) (P18627 23-266 D131A): as the sequence (P18627 23-266 L56A) above, with A34L, D109A counted along it

[30] = target: human LAG-3 domain 1-2 Fc fusion, point mutation #72 S133A (human) (UniProt P18627)
Sequence of human LAG-3 domain 1-2 Fc fusion, point mutation #72 S133A (human) (P18627 23-266 S133A): as the sequence (P18627 23-266 L56A) above, with A34L, S111A counted along it

[31] = target: human LAG-3 domain 1-2 Fc fusion, point mutation #74 P138A (human) (UniProt P18627)
Sequence of human LAG-3 domain 1-2 Fc fusion, point mutation #74 P138A (human) (P18627 23-266 P138A): as the sequence (P18627 23-266 L56A) above, with A34L, P116A counted along it

[32] = target: human LAG-3 domain 1-2 Fc fusion, point mutation #75 R141A (human) (UniProt P18627)
[33] = target: human LAG-3 domain 1-2 Fc fusion, point mutation #79 S159A (human) (UniProt P18627)

Measured: KD mutant/KD wild type

Sequence of human LAG-3 domain 1-2 Fc fusion, chimeric construct #2 (mutated region AA 29-30) (human) (P18627 other isoform, or with tags, fused parts or gaps mutant): as the sequence (P18627 23-266 L56A) above, with V7L, P8S, A34L counted along it
Sequence of human LAG-3 domain 1-2 Fc fusion, chimeric construct #11 (mutated region AA 74-82) (human) (P18627 other isoform, or with tags, fused parts or gaps mutant): as the sequence (P18627 23-266 L56A) above, with A34L, A52S, A53I, G55A, H56L, P57D, A59L, P60Q counted along it

Fab fragment of 25F7-Lag3.5 analogue
1 fold: [13] | [19] | [20] | [25] | [31]
14.1 fold: [16]
1.3 fold: [2] | [7] | [28]
0.8 fold: [6] | [14] | [23] | [32] | [33]
2.2 fold: [17]
1.4 fold: [8]
1.2 fold: [3] | [4] | [18] | [29]
0.7 fold: [11] | [15] | [27]
0.9 fold: [5] | [10] | [12] | [22]
1.1 fold: all other assays above
